Results reported in paper PMC6488192 (2019).

B1: RNA Editing Helicase 2 (REH2) wild type with TAP tag [T. brucei] / REH2-Associated Factor 1 (^H2F1), endogenous [T. brucei (endogenous in Lister 427 29-13 procyclic cells)] (parent complex)
chain 1: FQTQEITPGEVSLVEATDESDRAFGETRKEDFSFDGSSEFPECFKDTKHVDTFSRARVVSFIKRFSQGAVTSSSEVFEGREIVNDNGTPLYHSRVRLPFRSHTGELWAHGVACNSKDAELLAAMHAEHIIDEFGYHIYTLPSMQRKHAEAARKAGRWAPLPDELERTQSPVRVPLPLRRIVDRDETEGGKWLLIDMRPNHYISPSHTLLSPCLFDTTAVHRIKSFLDEHKLSFAQLCTSVEEPGEGGGQSWYVATVSLPPELSTFSEIKAQGKALNREAAVTLACMHAELVLDAHSICLYPSDSTKQKQHALAAWSYGRPAPLPGEDQKNPSHVVCPLPLKQLAVRREDRISCISYEEDIIRRHRALTDQTCEFIETPTLDSSAVEQLKQFLQRENVPRTDPFLVEEVNGYYKATVVLPLPDLYGIRGGVGIAMNATDARVLAAMHAIDVLNILGFHLMDGSTARAEWIAARRARGESVPADTRDPNVLSPSGRRRVATGNSSTQTPSSSTNARSVAAAPDVGTSDPTAPQNTKRRVAKRARVADAQPTEEKDAANSDSDEATSYLKMRETVSKELWNLEPDSPDGYIMVSPTDPETRTQFEQALYSPRQVDLGSKSRIKNYLASVGRRIEEVFFVQRIEAEDNGGQAICRCAVNLPVPRRFGDRIALGEAVDPKDAENLAAMHAELILDTLGIPIYTDSALQRLHVRLCAKCGRNAPVEYSESVAAATASPPPLRREVVGSIHWENKSKRRRAAISVQKGGGPANSQETTSALREDEEPLIAPKERREYTFVPEKDLDLVSRARVHYYLRRNGIAKLEPEYRMELRGLGNVLHIAELTLPLPDVYGKRVAHGSALTKRDAEILCWMHAEQILDAVGLCLFDNLPMLQRRHVECVKRLGRWAPLVSENATKPPHTPTPLPLTLGTTQEKPQYPTPPTNVRQDWEQYAQECQRYIEINVMREHNIFYEMGKTPRTGDETYDAALAEVESMPIDPDAKTVLQRYCNVANVNYPTFWKSRTVGPISCRVCLTTIEVPGHEYLRASGVAWNKEASQRQAAMHALALLRRVEPDFAEFEKQIKAEVVDKVNLVDPAAVLDEEAPVLRRTARVSKKSLGNWDPVSKDFSHEGKVRIIELFTVCFGLQPPLVRHLNRRSGSFVQHFTVVEVTDEDGKTWVGTGRDAGPRFNEPAAFDDLFSKLSRGVQGFQALMDLIRAHPHLDPEHIANVSLTDSQKERILKAVDGLPMVEEEDVAHPEQWADADSDRGIGIMALIAMDASQRAQESQELEAKLQAKLTNEEYQTRYASQRQRLRIYEKRDEILRAISSNQIVIICGTTGCGKTTQVPQYILDDMTEKGMGGDCSIVITQPRRLSAVSIARRVAAERLESIGETCGYSIRLDAKPGRNINFCTSGVLLRLLHSAPLLNGINYLIIDEIHERDINSDFLLILLRQLLHRRKDLHVILMSATLQADQFGKYFGNAPIINVEGYVHAVEEMYLEDLVPIATERNVMTPLLKEAAAALERNGAADGFCPTVVPPTAKYGFLEATADIDYMTIQIAIDHAVRSLDLTDSSILVFLPGWDEINRAKEILERNAKFHIICLHSSVGAEEQMRCFLPAPEGKIKLILSTNIAESGVTIDDVAAVIDVGRGKEKSYVMRKGTTSVGRNEMGSMSQLVTVYASRANCVQRRGRVGRTRPGMCIRLYSKKHFQSLHDFQTPEMLRTHLDSLCLQILALDLGDPADFLQQALEPPSSDHIEAAMKRLHELGATTSTRQLTPLGLRLSRLPVAPKVGKMVIMGAILRCLDSALTIAGVSDTDVFISTREHREAVRLHKEDLSYGTQSDVIASVNAFNFWVTSHYAKTPAEVVYDLQERMLSVPQLLTVSKYKQQFFEIVAGSGFIHMKQNYKDAKNKDRADIFVDQSEYSADSLNVGLVKCVVASGLFPNVVMNRGKRLMRNKLANRLDPSSASVVHRTSQENIGQPYFVYDELVKSSESERLLVRDLTNVSLWTILLMGTSSMPVTYRDDLNLAVVDEWIMFRATFGTLELIRKFKRALNVCLGRKFMNPNDEENNAKLEELRCIIKELVCTPFKPNDLAEKPWEEKGVIIEPCTEPKGGSSEAEKTHVNSSHTPTTSAEAGGDS
chain 2: CHHPLRIPSVQLAAPRSHTHEDIAYASCPACSRVVHMCDMLTHLITAHRELDQTHCRKMCTERLALYERVIGVPLKKSELTSSGRRVLDFLPTVLPTGYMCNWCDRRSDVYATRDKFLKHVADVHTDIDLEEVEPHVPLPPRGVVVEKSNGDGGPQPTRRLNGVVAVAEKSEPINAVPRILGISLPRGVDRPLKATAQFSDTEFPCELCNRTFNSEIDLLQHLETRHPDGTAEGPAGVDSAAIADVAQFSAKEATTGGDQRVHVICDLCVSSSKVYKMPSALFSHIRFKHPNEDAAFHVERLIREQKTVSSFVCTVCQKAFASAAALDGHFNSKHAEQGEAQNVVGRVTANNCWWCHDCEKGFSSAKGLHGHMQNKHGLSSQTHPCPACKRVFADIYSLEEHLSLQHKTIRLSDIGLLTHVKCSTCERFFLSHEDLHRHAVKHHKKDPRAPAQPFEAPTSASHVAASTSAAVPSEVEATASPQGPRKVKKRKKTTEVSEVTS

Variants of: B1
Test: IgG pulldown of TAP-tagged REH2, western blot quantification; parent: 1; read off a plot

Variant | ratio to parent
chain 1 H1968E | ~0.97
chain 1 R1993A | ~0.92
chain 1 R1949A | ~1.1
chain 1 K1048A, chain 1 A1056D | ~1
